Biological target: T1, N-terminally GST-tagged TRAF6 (mouse, UniProt P70196 1-530)
T1 construct: TNF receptor-associated factor 6 (TRAF6), mouse; amplified by PCR with primers from the start codon to the stop codon; 530 residues by the printed limits of the cc-c construct; also called GST-TRAF6; purified recombinant TRAF6; source: E. coli BL21 (DE3), purified (GST bulk kit); not shown: GST, N-terminal, kept
T1 sequence (looked up): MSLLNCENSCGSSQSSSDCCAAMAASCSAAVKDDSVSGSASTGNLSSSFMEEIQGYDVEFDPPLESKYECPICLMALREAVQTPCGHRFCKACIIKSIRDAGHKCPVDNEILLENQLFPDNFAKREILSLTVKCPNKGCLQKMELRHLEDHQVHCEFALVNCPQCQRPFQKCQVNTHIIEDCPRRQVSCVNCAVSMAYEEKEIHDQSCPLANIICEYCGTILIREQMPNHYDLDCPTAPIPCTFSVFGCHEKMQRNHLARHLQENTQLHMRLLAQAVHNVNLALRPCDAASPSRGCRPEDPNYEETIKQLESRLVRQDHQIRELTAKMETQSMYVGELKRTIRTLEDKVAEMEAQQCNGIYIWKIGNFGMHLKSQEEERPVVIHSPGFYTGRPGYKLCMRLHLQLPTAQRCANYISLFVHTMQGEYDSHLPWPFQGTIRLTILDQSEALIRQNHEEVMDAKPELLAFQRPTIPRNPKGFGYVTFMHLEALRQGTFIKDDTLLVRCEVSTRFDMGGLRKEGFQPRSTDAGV
Assay: SPR; BIACORE X100, single cycle kinetics; GST-TRAF6 amine-coupled on a CM5 chip, GST-coated sensor as reference; neuroplastin peptide injected at 2.5, 5, 100, 200 and 400 uM; HBS-P buffer
Conditions: both partners purified

- Kd: 88 µM
- stoichiometry N: 1
B1: neuroplastin intracellular peptide containing the TRAF6 binding motif (peptide)
chain: EKRKRPDEVPDAGPMKTNSTNNHKDKNLRQRNTN
modifications: Peptide limits are not printed (possibly in the figure or supplement). The whole cytoplasmic tail is taken by convention from the UniProt topology; it should contain the printed motif RKRPDEVPD. …

Reference: PMC7755605, “The Interaction of TRAF6 With Neuroplastin Promotes Spinogenesis During Early Neuronal Development” (Frontiers in Cell and Developmental Biology, 2020)
